In US20210340238A1, “TGFß1 INHIBITORS AND USE THEREOF” (Scholar Rock, Inc., priority 2018, published 2021):
Where a chain is given by its changes, count along the chain named.

B1: Ab19 (antibody, V domains shown)
VH: QVQLVESGGGVVQPGRSLRLSCAASGFTFSSFAMTWVRQAPGKGLEWVSAISGSGAATYFADSVKGRFTISRDNSKNTLYLQMNSLRAEDTAVYYCARVSSGHWDFDEWGQGTLVTVSS
VL: DIQLTQSPSSLSASVGDRVTITCRASQSISSYLNWYQQKPGKAPKLLIYAASNLQSGVPSRFSGSGSGTDFTLTISSLQPEDFATYYCQQTYTVPLTFGGGTKVEIK
B2: Ab14 (antibody, IgG1, V domains shown)
VH: EVQLLESGGGLVQPGGSLRLSCAASGFTFSAYAMTWVRQAPGKGLEWVSAISGTGGSTYYADSVKGRFTISRDNSKNTLYLQMNSLRAEDTAVYYCARVSSGHWDFDYWGQGTLVTVSS
VL: B1 VL with L4M, N53S, T91V, T93D, V94P
B3: Ab12 (antibody, V domains shown)
VH: B1 VH with S31D, F32Y, T35V, A56F, A57T, F60Y, E108Y
VL: B1 VL
B4: Ab17 (antibody, IgG1, V domains shown)
VH: B1 VH with Q1E, V5L, R16G, E108Y
VL: B1 VL
B5: Ab2 (antibody, V domains shown)
VH: B2 VH with S30A, A31D, T54S, G56A, S57A, Y60F
VL: B1 VL
B6: Ab15 (antibody, IgG1, V domains shown)
VH: B2 VH with L5V, L11V, G16R, A31D, T35V, T54S, G56F, S57T
VL: B1 VL
B7: Ab11 (antibody, V domains shown)
VH: B2 VH with S30R, A31N, T35S, A50S, T54S, S57A
VL: B1 VL
B8: Ab18 (antibody, IgG1, V domains shown)
VH: B1 VH with S31D, F32Y, T35V, R98T, E108Y
VL: B1 VL
B9: Ab13 (antibody, IgG1, V domains shown)
VH: B2 VH with S30A, A31D, G53S, T54F, G55A, G56S, S57A, T58I
VL: B1 VL with L4M, N53S, T91V, T93D, V94P
B10: Ab16 (antibody, IgG1, V domains shown)
VH: B2 VH with A31N, T35S, T54S, G56F, S57T
VL: B1 VL
B11: Ab20 (antibody, V domains shown)
VH: B2 VH with T54S, S57V, F106Y
VL: B1 VL

Biological target: Cell-associated proTGFβ1 (hGARP-proTGFβ1 and hLRRC33-proTGFβ1 complexes)
Experiment: Octet (BLI); IgG1 from yeast; mean of hGARP and hLRRC33

**Q.** Which Cell AVRG (average KD) does the source give for B1 here?
**A.** Its Cell AVRG (average KD) is 5.95 nM.

**Q.** Which Cell AVRG (average KD) does the source give for B2 here?
**A.** Its Cell AVRG (average KD) is 5.92 nM.

**Q.** With B3 as the binder, how does the Cell AVRG (average KD) read?
**A.** Its Cell AVRG (average KD) is 3.89 nM.

**Q.** B4 was tested. Which Cell AVRG (average KD) did it give?
**A.** Its Cell AVRG (average KD) is 4.64 nM.

**Q.** With B5 as the binder, how does the Cell AVRG (average KD) read?
**A.** Its Cell AVRG (average KD) is 0.643 nM.

**Q.** For B6, which Cell AVRG (average KD) is on record?
**A.** The Cell AVRG (average KD) was 3.86 nM.

**Q.** With B7 as the binder, how does the Cell AVRG (average KD) read?
**A.** Its Cell AVRG (average KD) is 0.699 nM.

**Q.** B8 was tested. Which Cell AVRG (average KD) did it give?
**A.** Its Cell AVRG (average KD) is 6.26 nM.

**Q.** How did the Cell AVRG (average KD) turn out when B9 was run?
**A.** The Cell AVRG (average KD) was 5.7 nM.

**Q.** Which Cell AVRG (average KD) does the source give for B10 here?
**A.** The Cell AVRG (average KD) was 2.4 nM.

**Q.** Which Cell AVRG (average KD) does the source give for B11 here?
**A.** Its Cell AVRG (average KD) is 0.715 nM.

Biological target: Cell-associated proTGFβ1 (hGARP-proTGFβ1 and hLRRC33-proTGFβ1 complexes)
Experiment: MSD-SET; IgG4 from mammalian cells; mean of hGARP and hLRRC33

**Q.** With B1 as the binder, how does the Cell AVRG (average KD) read?
**A.** The Cell AVRG (average KD) was 4.75 nM.

**Q.** B3 was tested. Which Cell AVRG (average KD) did it give?
**A.** Its Cell AVRG (average KD) is 2.45 nM.

**Q.** Which Cell AVRG (average KD) does the source give for B5 here?
**A.** The Cell AVRG (average KD) was 2.3 nM.

**Q.** B7 was tested. Which Cell AVRG (average KD) did it give?
**A.** Its Cell AVRG (average KD) is 4.65 nM.

**Q.** Which Cell AVRG (average KD) does the source give for B11 here?
**A.** The Cell AVRG (average KD) was 1.35 nM.

Biological target: Matrix-associated proTGFβ1 (hLTBP1-proTGFβ1 and hLTBP3-proTGFβ1 complexes)
Experiment: Octet (BLI); cell average KD over ECM average KD

**Q.** Which G/D (fold bias) does the source give for B1 here?
**A.** The G/D (fold bias) was 34.5 fold.

**Q.** With B2 as the binder, how does the G/D (fold bias) read?
**A.** The G/D (fold bias) was 17.4 fold.

**Q.** B3 was tested. Which G/D (fold bias) did it give?
**A.** The G/D (fold bias) was 22.9 fold.

**Q.** With B4 as the binder, how does the G/D (fold bias) read?
**A.** The G/D (fold bias) was 24.3 fold.

**Q.** Which G/D (fold bias) does the source give for B6 here?
**A.** The G/D (fold bias) was 24.2 fold.

**Q.** How did the G/D (fold bias) turn out when B7 was run?
**A.** Its G/D (fold bias) is 4.35 fold.

**Q.** With B8 as the binder, how does the G/D (fold bias) read?
**A.** Its G/D (fold bias) is 22 fold.

**Q.** B9 was tested. Which G/D (fold bias) did it give?
**A.** Its G/D (fold bias) is 21.7 fold.

**Q.** With B10 as the binder, how does the G/D (fold bias) read?
**A.** Its G/D (fold bias) is 15.3 fold.

**Q.** For B11, which G/D (fold bias) is on record?
**A.** Its G/D (fold bias) is 4.42 fold.

Biological target: Matrix-associated proTGFβ1 (hLTBP1-proTGFβ1 and hLTBP3-proTGFβ1 complexes)
Experiment: MSD-SET; cell average KD over ECM average KD

**Q.** Which G/D (fold bias) does the source give for B1 here?
**A.** Its G/D (fold bias) is 1.68 fold.

**Q.** Which G/D (fold bias) does the source give for B3 here?
**A.** Its G/D (fold bias) is 3.4 fold.

**Q.** Which G/D (fold bias) does the source give for B7 here?
**A.** Its G/D (fold bias) is 3.87 fold.

**Q.** For B11, which G/D (fold bias) is on record?
**A.** Its G/D (fold bias) is 6.75 fold.

Biological target: Matrix-associated proTGFβ1 (hLTBP1-proTGFβ1 and hLTBP3-proTGFβ1 complexes)
Experiment: MSD-SET; IgG4 from mammalian cells; mean of hLTBP1 and hLTBP3

**Q.** How did the ECM AVRG (average KD) turn out when B1 was run?
**A.** Its ECM AVRG (average KD) is 2.83 nM.

**Q.** For B3, which ECM AVRG (average KD) is on record?
**A.** The ECM AVRG (average KD) was 0.72 nM.

**Q.** How did the ECM AVRG (average KD) turn out when B5 was run?
**A.** The ECM AVRG (average KD) was 0.266 nM.

**Q.** How did the ECM AVRG (average KD) turn out when B7 was run?
**A.** Its ECM AVRG (average KD) is 1.2 nM.

**Q.** For B11, which ECM AVRG (average KD) is on record?
**A.** The ECM AVRG (average KD) was 0.2 nM.

Biological target: Matrix-associated proTGFβ1 (hLTBP1-proTGFβ1 and hLTBP3-proTGFβ1 complexes)
Experiment: Octet (BLI); IgG1 from yeast; mean of hLTBP1 and hLTBP3

**Q.** B1 was tested. Which ECM AVRG (average KD) did it give?
**A.** Its ECM AVRG (average KD) is 0.172 nM.

**Q.** B2 was tested. Which ECM AVRG (average KD) did it give?
**A.** The ECM AVRG (average KD) was 0.341 nM.

**Q.** B3 was tested. Which ECM AVRG (average KD) did it give?
**A.** The ECM AVRG (average KD) was 0.17 nM.

**Q.** How did the ECM AVRG (average KD) turn out when B4 was run?
**A.** The ECM AVRG (average KD) was 0.191 nM.

**Q.** How did the ECM AVRG (average KD) turn out when B5 was run?
**A.** The ECM AVRG (average KD) was 0.157 nM.

**Q.** How did the ECM AVRG (average KD) turn out when B6 was run?
**A.** The ECM AVRG (average KD) was 0.159 nM.

**Q.** Which ECM AVRG (average KD) does the source give for B7 here?
**A.** The ECM AVRG (average KD) was 0.161 nM.

**Q.** With B8 as the binder, how does the ECM AVRG (average KD) read?
**A.** The ECM AVRG (average KD) was 0.284 nM.

**Q.** Which ECM AVRG (average KD) does the source give for B9 here?
**A.** Its ECM AVRG (average KD) is 0.263 nM.

**Q.** Which ECM AVRG (average KD) does the source give for B10 here?
**A.** Its ECM AVRG (average KD) is 0.157 nM.

**Q.** For B11, which ECM AVRG (average KD) is on record?
**A.** The ECM AVRG (average KD) was 0.162 nM.
